Laboratory results published in the RNAGym collection of RNA variant scans (doi:10.1073/pnas.2313332121).

B1: TPR t1 (parent)
chain: GACCAAUCUGCCCUCAGAGCUCGAGAACAUCUUCGGAUGCAGAGGAGGCAGGCUUCGGUGGCGCGAUAGCGCCAACGUCCUCAACCUCCAAUGCAUCCCACCACAUGAUGAUGCCUGAAGAGCCUUGGUUUUUUG

Variants of: B1
Assay: polymerase ribozyme fitness, log enrichment relative to wild type (log ratio); higher = more active; in vitro selection for triplet polymerase activity
Outline: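 Mutant libraries were PCR-built and transcribed for each subunit of a heterodimeric triplet polymerase ribozyme and selected for one round in triplicate at −7 °C, frozen, before gel excision of extended constructs and streptavidin-bead capture. Input and output libraries were Illumina-sequenced, keeping genotypes with ≥10 input reads and ≥1 read per output. Fitness is a logarithmic ratio of genotype to wild-type enrichment, in base 2, using inverse-variance-weighted replicate averages.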

Row | Variant | polymerase ribozyme fitness (log ratio)
1 | A50C C115U | -1.47
2 | C49U C53A A111C | -0.429
3 | C49G C89G | -2.16
4 | C49U C56U | -0.758
5 | C49G G61U C88A | -1.08
6 | C49U C73U G110A | -1.42
7 | A50C C53U C97U | -1.01
8 | A50C C97G | -6.04
9 | G51A C79G C80G A84C C124G G128C | -7.76
10 | C49A C53G C73U A74G A100U | -2.75
11 | G48U G52U G63C | -2.05
12 | C49A C70U | -1.18
13 | A50U C79U | -1.76
14 | C49G G60U G110A | -1.76
15 | A50U A84G | -3.04
16 | A50U C101G U106A A118G C124A | 0.335
17 | G51A G93A | -3.45
18 | G51A G93U | -4.23
19 | G51C C72A U129G | -4.58
20 | G51A C79A G113A | -3.64
21 | G51A C73G C124U | -1.14

Row | Variant | polymerase ribozyme fitness (log ratio)
22 | C49U C124U U132A | 0.615
23 | A50C C70U | -2.04
24 | A50C C70G | -3.56
25 | A50U G63A U106A G135C | -2.47
26 | C49A G52U A105U | -3.88
27 | C49G C72G G120C | -0.782
28 | C49U A66C C86G C88U U92A C114U | -5.32
29 | G48U G57U C76G U78A G117A | -2.42
30 | G48U G120C | -0.358
31 | C49A G57U G60U G113A | -1.65
32 | G51A C72G U96A | -3.94
33 | C49U G57U C79U C101A G128U | -4.04
34 | C49G G69U | -0.396
35 | A50U G52C G58C C72U C88U | -4.47
36 | G51C U87A G120A | -3.27
37 | G48U C79U G135C | -1.81
38 | A50U A95C | -1.9
39 | C49A G128C | -3.42
40 | A50U G117C | -2.96
41 | G48U G63A C79G | -6.13
42 | G48U C88U | -1.36

Row | Variant | polymerase ribozyme fitness (log ratio)
43 | G48U C88A | -0.373
44 | C49U G135C | -0.277
45 | G51A G60A A84G G120U | -2.9
46 | A50U G52C A83C | -2.39
47 | C49A A83C A84U | -0.775
48 | A50C A66U C72U U81G C85A | -3.05
49 | C49G C53A G57A C85A C88A C115G | -3.29
50 | G51C G61U C64A C79A G117A U133G | -6.91
51 | G51A C56U A84G A95G U96A | -5.06
52 | C49G G52A C82G A84G A121U | 0.784
53 | G48U G57A C101U C124G | 0.412
54 | G51A C72G C79U | -3.08
55 | G51A C56U A84U C99U A121U | -5.26
56 | C49U G128C | -2.44
57 | C49A U81C | -2.67
58 | C49G C56G U87A G117A | -4.51
59 | A50U A91C | -3.23
60 | G48U G69A | -3.02
61 | G48U G69U | -0.529
62 | C49G G69U U125A G128A | -3.1
63 | C49G C56A | -2.63

Row | Variant | polymerase ribozyme fitness (log ratio)
64 | A50C A66C A100U | -3.95
65 | A50C C104U G110A A118U | -0.437
66 | C49U G69U A121C | 1.51
67 | C49G U112C G113A | -2.11
68 | C49U A50C | -0.544
69 | A50C G77U C115G | -1.98
70 | C49U G69U | 0.911
71 | C49U G69C | -1.79
72 | C49U C72G U78C | -1.33
73 | C49G U59G | -0.612
74 | C49A G69C | -1.8
75 | C49A C62G | -2.22
76 | C49G G63U U130G | -2.28
77 | C49G C124G | 1.58
78 | C49A C62G C76U | -5.79
79 | A50C C82U G117U | -2.93
80 | C49G C64A G77U A83U G120U | -6.63
81 | A50G C73U C88U C124A | 1.42
82 | G51C G58A A100C C124U | -4.88
83 | C49U C123G G128C | -1.69
